Results as given in PMC4024195.

Key:
glucokinase-YN155 [1] = biological target: glucokinase-YN155 (UniProt P17712); assay: BiFC assay; details: COS1 cells, 25 mM glucose, without dibutyryl cAMP; parent: est. 36; read off a plot
glucokinase-YN155 [2] = biological target: glucokinase-YN155 (UniProt P17712); assay: BiFC assay; details: COS1 cells, 25 mM glucose, read off a plot

Sequence of UniProt P17712 (P17712 whole entry): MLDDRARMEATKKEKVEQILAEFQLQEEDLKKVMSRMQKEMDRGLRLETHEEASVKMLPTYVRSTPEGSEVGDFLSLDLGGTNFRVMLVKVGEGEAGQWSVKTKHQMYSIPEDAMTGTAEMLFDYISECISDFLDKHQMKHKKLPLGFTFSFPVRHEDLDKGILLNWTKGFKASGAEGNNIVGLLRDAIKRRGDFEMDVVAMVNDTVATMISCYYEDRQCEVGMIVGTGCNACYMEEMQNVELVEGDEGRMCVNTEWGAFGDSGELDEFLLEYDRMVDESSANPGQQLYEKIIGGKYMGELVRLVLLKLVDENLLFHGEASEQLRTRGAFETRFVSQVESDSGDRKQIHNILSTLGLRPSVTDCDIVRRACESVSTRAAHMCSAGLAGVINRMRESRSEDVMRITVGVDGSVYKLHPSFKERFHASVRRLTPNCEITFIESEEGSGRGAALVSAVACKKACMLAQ

| response (% transfected cells) (glucokinase-YN155 [1]) | response (% transfected cells) (glucokinase-YN155 [2]; 50 μM dibutyryl cAMP for 1 h, parent: est. 28) | response (% transfected cells) (glucokinase-YN155 [2]; without dibutyryl cAMP, parent: est. 36) | Substance |
| --- | --- | --- | --- |
| 39 | 33 | 39 | wild-type PFK2/FBPase2-YC155 (from UniProt P07953) S32A |
| 39 |  |  | wild-type PFK2/FBPase2-YC155 (from UniProt P07953) S32D |
